Source: patent US20200010554A1 (TUSK THERAPEUTICS, published 2020)
Numbering of substitutions follows the chain as printed. Where two headings read alike, the source gives them in different places. Blank lines part the entries; values can stand above or below the binder they belong to.

Experiments:
[1] = target: T1, recombinant human CD25 his tagged (human, UniProt P01589 22-213, limits assumed); test: SPR, Biacore 2000: antibody captured on an anti-human antibody CM-5 chip, rhCD25 his tagged as analyte, 1:1 Langmuir fit
T1 construct: also called rhCD25 his tagged; rhCD25; not shown: his tag
T1 sequence: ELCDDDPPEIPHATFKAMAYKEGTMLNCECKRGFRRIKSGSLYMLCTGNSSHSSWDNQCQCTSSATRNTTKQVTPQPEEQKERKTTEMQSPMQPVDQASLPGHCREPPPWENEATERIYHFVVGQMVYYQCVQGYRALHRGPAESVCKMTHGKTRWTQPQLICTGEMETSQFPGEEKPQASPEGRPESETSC

[2] = target: T2, human CD25 expressed on cells (Karpas 299, SU-DHL-1, SR-786, in vitro differentiated Treg cells, PBMC) (human, UniProt P01589 22-272); test: flow cytometry on SR-786 cells, Geo Mean Intensity
T2 construct: also called CD25 expressing cells
T2 sequence: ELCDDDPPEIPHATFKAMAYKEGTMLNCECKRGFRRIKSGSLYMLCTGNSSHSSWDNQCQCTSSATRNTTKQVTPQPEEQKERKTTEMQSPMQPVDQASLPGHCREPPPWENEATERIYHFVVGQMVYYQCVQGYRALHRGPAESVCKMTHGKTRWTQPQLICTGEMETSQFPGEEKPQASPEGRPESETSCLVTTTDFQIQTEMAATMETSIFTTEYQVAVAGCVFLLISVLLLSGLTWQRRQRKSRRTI

[3] = target: T2, human CD25 expressed on cells (Karpas …); test: flow cytometry on SU-DHL-1 cells, Geo Mean Intensity
[4] = target: T2, human CD25 expressed on cells (Karpas …); test: flow cytometry on Karpas 299 cells, MFI AF647
[5] = target: T1, recombinant human CD25 his tagged; test: SPR, Biacore 2000: antibody captured on an anti-human antibody CM-5 chip, rhCD25 his tagged as analyte, 1:1 Langmuir fit; remark: listed apart in the source
[6] = target: T2, human CD25 expressed on cells (Karpas …); test: flow cytometry on human in vitro differentiated Treg cells, MFI AF647
[7] = target: T2, human CD25 expressed on cells (Karpas …); test: flow cytometry on Karpas 299 cells, MFI AF647; remark: listed apart in the source
[8] = target: T2, human CD25 expressed on cells (Karpas …); test: flow cytometry titration on Karpas 299 cells, AF647 secondary antibody
[9] = target: T2, human CD25 expressed on cells (Karpas …); test: as above; remark: listed apart in the source
[10] = target: T2, human CD25 expressed on cells (Karpas …); test: as above; remark: listed apart in the source
[11] = target: T2, human CD25 expressed on cells (Karpas …); test: as above; remark: listed apart in the source
[12] = target: T2, human CD25 expressed on cells (Karpas …); test: as above; remark: listed apart in the source
[13] = target: T3, mouse CD25 expressed on cells (CHO cells expressing mouse CD25; mouse T cells) (mouse, UniProt P01590 22-268); test: flow cytometry on CHO cells expressing mouse CD25, MFI AF647
T3 construct: whole, on cells; also called CHO-mCD25; cellular expressed mCD25
T3 sequence (looked up): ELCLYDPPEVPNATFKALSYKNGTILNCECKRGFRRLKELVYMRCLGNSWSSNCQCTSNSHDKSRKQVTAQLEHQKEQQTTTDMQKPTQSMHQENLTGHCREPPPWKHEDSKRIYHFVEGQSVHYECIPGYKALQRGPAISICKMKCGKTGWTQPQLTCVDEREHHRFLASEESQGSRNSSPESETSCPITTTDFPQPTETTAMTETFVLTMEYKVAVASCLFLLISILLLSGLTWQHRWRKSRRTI

recombinant mouse CD25 = target: T4, recombinant mouse CD25 (mouse, UniProt P01590 22-236, biotinylated in FIG. 1A (site not stated)); test: BLI Octet RED384, IgG on AHQ sensors, 100 nM antigen, 1:1 model
T4 construct: also called biotinylated mouse CD25
T4 sequence (looked up): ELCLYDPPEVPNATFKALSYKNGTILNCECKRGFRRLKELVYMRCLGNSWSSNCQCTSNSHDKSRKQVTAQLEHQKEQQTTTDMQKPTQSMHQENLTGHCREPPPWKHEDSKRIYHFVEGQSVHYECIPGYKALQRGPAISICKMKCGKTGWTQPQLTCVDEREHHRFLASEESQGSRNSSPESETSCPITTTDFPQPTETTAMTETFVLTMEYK

[14] = target: T5, recombinant mouse CD25 his tagged (mouse, UniProt P01590 22-236, limits assumed); test: SPR Biacore 2000, antibody captured by anti-mouse antibody on CM-5 chip, recombinant mouse CD25 his tagged as analyte, bivalent analyte model
T5 construct: also called rmCD25 his tagged; mCD25; not shown: his tag
T5 sequence (looked up): T4 sequence (looked up)

[15] = target: T1, recombinant human CD25 his tagged; test: biolayer interferometry, Octet Red 96: antibody on AHC biosensor, rhCD25 his tagged 50 nM to 0.54 nM, global 1:1 fit [F]
[16] = target: T2, human CD25 expressed on cells (Karpas …); test: flow cytometry titration on Karpas 299 cells, AF647 secondary antibody [Figure 68 continued]
[17] = target: T2, human CD25 expressed on cells (Karpas …); test: as above; remark: listed apart in the source

B3: 7G7B6, mouse IgG2a anti-human CD25 antibody (antibody, V domains shown)
VH: EVQLVESGGDLVQPRGSLKLSCAASGFTFSSYGMSWVRQTPDKRLELVATINGYGDTTYYPDSVKGRFTISRDNAKNTLYLQMSSLKSEDTAMYFCARDRDYGNSYYYALDYWGQGTSVTVSS
VL: QIVLSQSPAILSASPGERVTMTCRASSSVSFMHWLQQKPGSSPKPWIYATSNLASGVSARFSGSGSGTSYSLTITRVEAEDAATYYCQQWSSNPPAFGGGTKLEIK
notes: also called 7G76B; mouse anti-human CD25 clone 7G7B6
EC50 (read off the curve) [6]: ~1 µg/mL

B5: Antibody 10 (antibody, V domains shown)
VH: QVQLQESGPGLVKPSETLSLTCTVSGFSLTSYGIQWIRQPPGKGLEWIGVIWAGGSTNYNSALMSRVTISKDNSKNQFSLKLSSVTAADTAVYYCARAYGYDGSWLAYWGQGTLVTVSS
VL: EIVLTQSPATLSLSPGERATLSCRASSSVSYMHWYQQKPGQAPRPLIFATSNLASGIPARFSGSGSGTDFTLTISSLEPEDFAVYYCQQWSSNPPTFGGGTKLEIK
notes: also called Ab10
EC50 (read off the curve) [8]: ~0.3 µg/mL

B6: Antibody 6 (antibody, V domains shown)
VH: EVQLLESGGGLVQPGGSLRLSCAASGFTFSSYGMSWVRQAPGKGLELVSTINGYGDTTYYPDSVKGRFTISRDNSKNTLYLQMNSLRAEDTAVYYCARDRDYGNSYYYALDYWGQGTLVTVSS
VL: B5 VL with A9G, Y31F, Y35L, F48Y, A59D, F70Y, S76R, T96A, G99Q
notes: compared with a human IgG1 isotype control
binding result [9]: binds

B11: Antibody 5 (antibody, V domains shown)
VH: EVQLVESGGGLIQPGGSLRLSCAASGFTLDSYGVSWVRQAPGKGLEWVGVTSSGGSAYYADSVKGRFTISRDNSKNTLYLQMNSLRAEDTAVYYCARDRYVYTGGYLYHYGMDLWGQGTLVTVSS
VL: DIQMTQSPSSLSASVGDRVTITCRASQSISDYLAWYQQKPGKVPKLLIYAASTLPFGVPSRFSGSGSGTDFTLTISSLQPEDVATYYCQGTYDSSDWYWAFGGGTKVEI
notes: as for B6
Kd [15]: 0.8 nM

B12: Antibody 20 (antibody, V domains shown)
VH: QVQLVESGGGVVQPGGSLRLSCAVSGFSLTSYGIQWVRQAPGKGLEWVSVIWAGGSTNYNSALMSRFTISKDNSKSTLYLQMNSLRAEDTAVYYCARAYGYDGSWLAYWGQGTLVTVSS
VL: DIQMTQSPSSLSASVGDRVTITCRASSSVSYMHWYQQKPGKAPKPLIFATSNLASGVPSRFSGSGSGTDYTLTISSLQPEDFATYYCQQWSSNPPTFGGGTKLEIK
notes: also called Ab20
EC50 (read off the curve) [16]: ~0.2 µg/mL

B13: Antibody 21 (antibody, V domains shown)
VH: B12 VH
VL: B12 VL with D1Q, M4L, A42S
notes: also called Ab21
EC50 (read off the curve) [17]: ~0.2 µg/mL

The next lines start with the values.

Kd [1]: 6.7 nM
EC50 (read off the curve) [2]: ~0.9 µg/mL
EC50 (read off the curve) [3]: ~0.8 µg/mL
EC50 (read off the curve) [4]: ~1 µg/mL
B1: chimeric 7G7B6 (antibody, V domains shown)
VH: B3 VH
VL: B3 VL
notes: also called 7G7B6 chimeric antibody; 7g7B6ch

Kd [5]: 6.6 nM
B2: MA251ch (antibody, V domains shown)
VH: QVQLKESGPGLVAPSQSLSITCTVSGFSLTSYGIQWVRQPPGKGLEWLGVIWAGGSTNYNSALMSRLSISKDNSKSQVFLKMNSLQTDDTAMYYCARAYGYDGSWLAYWGQGTLVTVSS
VL: B3 VL with R18K, F31Y, L35Y, Y48F, S58P, T75N, A83D, A96T

EC50 (read off the curve) [7]: ~0.1 µg/mL
B4: MA251, mouse anti-human CD25 antibody (antibody, V domains shown)
VH: B2 VH
VL: B3 VL with R18K, F31Y, L35Y, Y48F, S58P, T75N, A83D, A96T
notes: Mouse isotype (compared with a mouse IgG1 isotype control)

binding result [10]: binds
B7: Antibody 9 (antibody, V domains shown)
VH: B6 VH with S75A, Y95F
VL: QIVLTQSPGTLSLSPGERATLSCRASSSVSFMHWLQQKPGQSPRPLIYATSNLASGIPDRFSGSGSGTDYTLTISRLEPEDFAVYYCQQWSSNPPAFGQGTKLEIK
notes: as for B6

binding result [11]: binds
B8: Antibody 8 (antibody, V domains shown)
VH: B6 VH with S75A, Y95F
VL: B7 VL with Q1E, S42A
notes: as for B6

binding result [12]: binds
B9: Antibody 7 (antibody, V domains shown)
VH: B6 VH
VL: B7 VL
notes: as for B6

EC50 (read off the curve) [13]: ~0.2 µg/mL
Kd (recombinant mouse CD25): 4.6 nM
Kd [14]: 3.6 nM
B10: PC61(mIgG2a), recombinant anti-mouse CD25 antibody from clone PC-61.5.3 with murine IgG2a and kappa constant regions (antibody, V domains shown)
VH: EVQLQQSGAELVRPGTSVKLSCKVSGDTITAYYIHFVKQRPGQGLEWIGRIDPEDDSTEYAEKFKNKATITANTSSNTAHLKYSRLTSEDTATYFCTTDNMGATEFVYWGQGTLVTVSS
VL: QVVLTQPKSVSASLESTVKLSCKLNSGNIGSYYMHWYQQREGRSPTNLIYRDDKRPDGAPDRFSGSIDISSNSAFLTINNVQTEDEAMYFCHSYDGRMYIFGGGTKLTV
notes: also called PC61m2a; aPC61 mIgG2a
